Test results as given in US20240027467A1 (VIB VZW, published 2024).
Positions count from the first letter of the chain named. Names and notes keep the numbering of the source. Read-outs that look alike come from different tables or passages of the source.

How the values were obtained:
[1] = biological target: T1, GST (Glutathione S-transferase) (Schistosoma japonicum (Blood fluke), UniProt P08515 1-218 = GST); assay: BLI
Experimental: (§1) Streptavidin-coated Octet® biosensors were used to capture biotinylated Nanobodies (1 μg/mL). […] All assays were performed in Hepes 25 mM pH7.5, NaCl 150 mM supplemented with BSA 0.1% and Tween²⁰ 0.005% at room temperature.

[2] = biological target: T1, GST (Glutathione S-transferase); assay: BLI (OctetRed), biotinylated Nb on streptavidin sensor, GST 63-1667 nM
Experimental: as §1

[3] = biological target: T2, recombinant human coagulation factor IXa (human, UniProt P00740 134-191; P00740 227-461); assay: tandem NANEX: displacement of factor IXa from immobilised CA10502 by 1 mL of 2.5 mg/mL (24 µM) MegaBody CA14208; A280/A650 and SDS-PAGE
T2 construct: range 134-191;range 227-461; Fluorescently labelled with Dylight-647 for the NANEX runs; also called FIXa
T2 sequence (P00740 134-191 limits assumed, form in doubt, chain 1 of 2): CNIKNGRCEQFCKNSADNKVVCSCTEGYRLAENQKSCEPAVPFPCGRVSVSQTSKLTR
T2 sequence (P00740 227-461 limits assumed, form in doubt, chain 2 of 2): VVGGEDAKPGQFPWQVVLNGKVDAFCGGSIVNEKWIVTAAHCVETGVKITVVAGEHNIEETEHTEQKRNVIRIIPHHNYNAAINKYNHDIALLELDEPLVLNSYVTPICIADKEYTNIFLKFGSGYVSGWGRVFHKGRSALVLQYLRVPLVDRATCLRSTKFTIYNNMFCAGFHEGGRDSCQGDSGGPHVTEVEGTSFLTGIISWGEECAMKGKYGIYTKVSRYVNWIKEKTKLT

[4] = biological target: T3, SMT3 (YDR510W), ubiquitin-like protein SMT3 (yeast); assay: BLI (OctetRed), biotinylated Nb on streptavidin sensor, SMT3 10-500 nM
T3 construct: also called yeast SUMO protein
T3 chain: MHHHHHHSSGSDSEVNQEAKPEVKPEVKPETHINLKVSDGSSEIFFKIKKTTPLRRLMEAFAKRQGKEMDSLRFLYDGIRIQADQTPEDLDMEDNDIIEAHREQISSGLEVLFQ
Experimental: (§2) Streptavidin-coated Octet® biosensors were used to capture biotinylated Nanobodies (1 μg/mL). Binding and dissociation isotherms at several SMT3 concentrations (10 nM to 500 nM range) were analyzed on an OctetRed (molecular devices). All assays were performed in Hepes 25 mM pH7.5, NaCl 150 mM supplemented with BSA 0.1% and Tween²⁰ 0.005% at room temperature.

[5] = biological target: T3, SMT3 (YDR510W), ubiquitin-like protein …; assay: BLI
Experimental: as §2

[6] = biological target: T2, recombinant human coagulation factor IXa; assay: BLI
mCherry [7] = assay: BLI
Experimental: as §1

mCherry [8] = assay: BLI (OctetRed), biotinylated Nb on streptavidin sensor, mCherry 8.23-222 nM
Experimental: as §1

[9] = biological target: T4, FmIH_lectin_mCherry_his (CA17337); assay: NANEX column: lysate with FmlH_lectin_mCherry_his on immobilised CA16964; A280 and SDS-PAGE [D00043 FIG. 39B]
T4 construct: also called mCherry-fusion protein

GFP protein [10] = biological target: T5, GFP protein (Aequorea victoria (Water jellyfish) …, UniProt P42212 1-238 = GFP); assay: BLI
T5 construct: Purified GFP used as BLI analyte, in crystals and in NANEX; also called Green fluorescent protein
Experimental: (§3) Streptavidin-coated Octet® biosensors were used to capture biotinylated Nanobodies (1 μg/mL). Binding and dissociation isotherms at several GFP concentrations (8 nM to 500 nM range) were analyzed on an OctetRed (molecular devices). All assays were performed in Hepes 25 mM pH7.5, NaCl 150 mM supplemented with BSA 0.1% and Tween²⁰ 0.005% at room temperature.

GFP protein [11] = biological target: T5, GFP protein; assay: BLI (OctetRed), biotinylated Nb on streptavidin sensor, GFP 8-500 nM
Experimental: as §3

GFP protein [12] = biological target: T5, GFP protein; assay: BLI; remark: listed apart in the source
Experimental: (§4) Streptavidin-coated Octet® biosensors were used to capture biotinylated Nanobodies (1 μg/mL). Binding and dissociation isotherms at several GFP concentrations (1 nM to 5 μM range) were analyzed on an OctetRed (molecular devices). All assays were performed in Hepes 25 mM pH7.5, NaCl 150 mM supplemented with BSA 0.1% and Tween²⁰ 0.005% at room temperature.

GFP protein [13] = biological target: T5, GFP protein; assay: comparison of affinities told with the NANEX result
GFP protein [14] = biological target: T5, GFP protein; assay: BLI (OctetRed), biotinylated Nb on streptavidin sensor, GFP as analyte
Experimental: as §4

mCherry [15] = assay: BLI (OctetRed), biotinylated Nb on streptavidin sensor, mCherry 8.23-222 nM; remark: listed apart in the source
Experimental: as §1

[16] = biological target: T4, FmIH_lectin_mCherry_his (CA17337); assay: displacement of FmlH_lectin_mCherry_his from immobilised CA16964 (NANEX column) by 1 mg CA17302; A280 and SDS-PAGE [D00043 FIG. 39B]
mCherry [17] = assay: BLI; remark: listed apart in the source
Experimental: as §1

B1: CA16239 GST Nanobody stripper (including C-terminal 6xHis+EPEA tag) (VHH)
VHH: QVQLVESGGGLVQAGGSLRLSCAASERTFSTYNMAWFRQAPGKEREFVAVISWNGGTTNSADSVKGRFTISRDNAKNTVYLQMNSLKPEDTAVYYCAARRVPYLSGTRYYTGEVDYDTWGQGTQVTVSS
modifications: biotinylated for BLI
Half time ratio (relative to wt) [1]: 1 fold
KD ratio (relative to wt) [1]: 1 fold
Kd [2]: 4.86 nM
koff [2]: 0.00309 s⁻¹
kon [2]: 720000 M⁻¹ s⁻¹

B2: CA16240 GST Nanobody trapper (Y109A) (including C-terminal 6xHis+EPEA tag) (VHH)
VHH: B1 VHH with Y109A
modifications: biotinylated for BLI
notes: Y109A mutant of CA16239
Half time ratio (relative to wt CA16239) [1]: 84 fold
KD ratio (relative to wt CA16239) [1]: 136 fold
Kd [2]: 659 nM
koff [2]: 0.251 s⁻¹
kon [2]: 512000 M⁻¹ s⁻¹

B3: CA14208 FIXa-specific MegaBody (Stripper2; C-term. 6xHis+EPEA) (other)
chain: QVQLVESGGGLVYKEETQSGLNNYARVVEKGQYDSLEIPAQVAASWESGRDDAAVFGFIDKEQLDKYVANGGKRSDWTVKFAENRSQDGTLLGYSLLQESVDQASYMYSDNHYLAEMATILGKPEEAKRYRQLAQQLADYINTCMFDPTTQFYYDVRIEDKPLANGCAGKPIVERGKGPEGWSPLFNGAATQANADAVVKVMLDPKEFNTFVPLGTAALTNPAFGADIYWRGRVWVDQFWFGLKGMERYGYRDDALKLADTFFRHAKGLTADGPIQENYNPLTGAQQGAPNFSWSAAHLYMLYNDFFRKQASGGGSGGGGSGGGGSGNADNYKNVINRTGAPQYMKDYDYDDHQRFNPFFDLGAWHGHLLPDGPNTMGGFPGVALLTEEYINFMASNFDRLTVWQDGKKVDFTLEAYSIPGALVQKLTAKDVQVEMTLRFATPRTSLLETKITSNKPLDLVWDGELLEKLEAKEGKPLSDKTIAGEYPDYQRKISATRDGLKVTFGKVRATWDLLTSGESEYQVHKSLPVQTEINGNRFTSKAHINGSTTLYTTYSHLLTAQEVSKEQMQIRDILARPAFYLTASQQRWEEYLKKGLTNPDATPEQTRVAVKAIETLNGNWRSPGGAVKFNTVTPSVTGRWFSGNQTWPWDTWKQAFAMAHFNPDIAKENIRAVFSWQIQPGDSVRPQDVGFVPDLIAWNLSPERGGDGGNWNERNTKPSLAAWSVMEVYNVTQDKTWVAEMYPKLVAYHDWWLRNRDHNGNGVPEYGATRDKAHNTESGEMLFTVKKDSLRLSCATSGIGFSIYSMGWYRQAPGKERELVASIAGNEDKDYVESVKGRFTISRDYAKNTLYLEMSGLKFEDTAMYYCAAGLRRGVSLTPYYWGQGTQVTVSSHHHHHHEPEA
notes: Functionalized Nanobody derived from CA10309; also called MegaBody MbCA10309^YgjK; MbNbFIXa^cHopQ
binding result [3]: binds

B4: CA15839 SMT3 Nanobody stripper (including C-terminal 6xHis+EPEA tag) (VHH)
VHH: QVQLVESGGGSAQTGGSLTLSCTASGSIVSMNSMGWFRRAPWKGREWLGDIGRDGRTSYASSVVGRFHISRDEAKNTVYLQMTRLKPEDAAMYYCAAVPFGDDDVGEWEYWGQGTQVTVSS
modifications: biotinylated for BLI
Kd [4]: 6.67 nM
koff [4]: 0.00212 s⁻¹
kon [4]: 318000 M⁻¹ s⁻¹
Half time ratio (relative to wt) [5]: 1 fold
KD ratio (relative to wt) [5]: 1 fold

B5: CA16687 SMT3 Nanobody trapper (D50A) (including C-terminal 6xHis+EPEA tag) (VHH)
VHH: B4 VHH with D50A
modifications: biotinylated for BLI
Kd [4]: 29 nM
koff [4]: 0.00797 s⁻¹
kon [4]: 387000 M⁻¹ s⁻¹
Half time ratio (relative to wt CA15839) [5]: 3.75 fold
KD ratio (relative to wt CA15839) [5]: 4.34 fold

B6: CA11138 FIXa-specific Nb (C-term. 6xHis+EPEA) (VHH)
VHH: QVQLVESGGGLVQAGGSLRLSCAASERTASNYVMGWFRQAPGKEREFVAFISRTGGSTYYADSVKGRFTVSRDGAKNTVYLQMNTMKPEDTAVYYCAASLYIRNYYEGTNYAYWGQGTQVTVSS
notes: also called trapper1
Kd [6]: 141 nM
koff [6]: 0.0042 s⁻¹
kon [6]: 34000 M⁻¹ s⁻¹

B7: CA10502 FIXa-specific Nb (Trapper2; C-term. 6xHis+EPEA) (VHH)
VHH: QVQLQESGGGLVQAGGSLRLSCAASGRTSRVYGVGWFRQAPGKERELVASISTSGSVTNVADSVKGRFTISRDNAKTTVYLQMNSLKPEDTALYYCAADPHGRPYGWGQGTQVTVSS
Kd [6]: 74 nM
koff [6]: 0.004 s⁻¹
kon [6]: 70000 M⁻¹ s⁻¹

B8: CA10304 FIXa-specific Nb (C-term. 6xHis+EPEA) (VHH)
VHH: QVQLVESGGGLVQAGGSLKLSCAASERTFSGTVMGWFRQPPGKEREFVGDISWSGSITDYADSVKGRFTISRDNAKNTMYLQMDSLKPEDTAVYYCAARVGGYSYIMSRSPADFGSWGQGTQVTVSS
notes: also called stripper1
Kd [6]: 46 nM
koff [6]: 0.0035 s⁻¹
kon [6]: 88000 M⁻¹ s⁻¹

B9: CA16964 mCherry Nanobody trapper (including C-terminal 6xHis+EPEA tag) (VHH)
VHH: QVQLVESGGGLVQAGGSLRLSCAASGRDFSFDGMGWFRQAPGKEREFVAAISWSGLRIGYSDSVKGRFTISRDNAETTVHLQMNSLKPEDTAVYYCATGSHATTKAQLYDYEYWGQGTQVTVSS
modifications: biotinylated for BLI
notes: also called Nb CA16964
Half time ratio (relative to CA17302) (mCherry [7]): 4.27 fold
KD ratio (relative to CA17302) (mCherry [7]): 3.86 fold
Kd (mCherry [8]): 6.53 nM
koff (mCherry [8]): 0.00436 s⁻¹
kon (mCherry [8]): 694000 M⁻¹ s⁻¹
binding result [9]: binds

B10: CA16047 second GFP Nanobody stripper (including C-terminal 6xHis+EPEA tag) (VHH)
VHH: QVQLQESGGGLVQAGGSLRLSCAASGFTFDGYAIGWFRQAPGKEREGVSCISSSDGSTYYADSVKGRFTISSDNAKNTVYLQMNSLKPEDTAVYYCVAAWSPSTGCGSYYVQRPPGYDYWGQGTQVTVSS
modifications: biotinylated for BLI
notes: also called Nb CA16047
Half time ratio (relative to wt) (GFP protein [10]): 1 fold
KD ratio (relative to wt) (GFP protein [10]): 1 fold
Kd (GFP protein [11]): 6.15 nM
koff (GFP protein [11]): 0.00098 s⁻¹
kon (GFP protein [11]): 234000 M⁻¹ s⁻¹

B11: CA16695 second GFP Nanobody trapper (Y119F) (including C-terminal 6xHis+EPEA tag) (VHH)
VHH: B10 VHH with Y119F
modifications: biotinylated for BLI
notes: Y119F mutant of CA16047; also called Nb CA16695
Half time ratio (relative to wt CA16047) (GFP protein [10]): 1.78 fold
KD ratio (relative to wt CA16047) (GFP protein [10]): 1.37 fold
Kd (GFP protein [11]): 8.53 nM
koff (GFP protein [11]): 0.00167 s⁻¹
kon (GFP protein [11]): 200000 M⁻¹ s⁻¹

B12: CA15818 GFP-NbF103A (C-term. 6xHis + EPEA) (VHH)
VHH: QVQLVESGGGLVQAGGSLRLSCAASGRTFSTAAMGWFRQAPGKERDFVAGIYWTVGSTYYADSAKGRFTISRDNAKNTVYLQMDSLKPEDTAVYYCAARRRGATLAPTRANEYDYWGQGTQVTVSS
modifications: biotinylated for BLI
notes: F103A mutant of CA12760; also called Nb CA15818
Half-time ratio (relative to the wt Nb CA12760) (GFP protein [12]): 9 fold
KD ratio (relative to the wt Nb CA12760) (GFP protein [12]): 30 fold
affinity, fold higher than the trapper CA15816 (GFP protein [13]): 2 fold
Kd (GFP protein [14]): 1.5 nM
koff (GFP protein [14]): 0.00029 s⁻¹

B13: CA15861 GFP-NbT54A/V55A/F103A (C-term. 6xHis + EPEA) (VHH)
VHH: B12 VHH with T54A, V55A
modifications: biotinylated for BLI
notes: T54A/V55A/F103A mutant of CA12760; also called Nb CA15861
Half-time ratio (relative to the wt Nb CA12760) (GFP protein [12]): 1400 fold
KD ratio (relative to the wt Nb CA12760) (GFP protein [12]): 2000 fold
affinity, fold lower than the trapper CA15816 (GFP protein [13]): ~100 fold
Kd (GFP protein [14]): 111 nM
koff (GFP protein [14]): 0.0458 s⁻¹

B14: CA17302 mCherry Nanobody stripper (including C-terminal 6xHis+EPEA tag) (VHH)
VHH: QVQLVESGGGLVQAGGSLRLSCVASGLPFSRYNMAWFRQAPGKEREFVADIDWSGDSTYDLDSVKGRFTISRDNAKNTVYLQMSSLLPEDTAVYYCAAHFKFILAQRIKWGDMDYWGKGTQVTVSS
modifications: biotinylated for BLI
notes: also called Nb CA17302
Half time ratio (relative to CA17302) (mCherry [7]): 1 fold
KD ratio (relative to CA17302) (mCherry [7]): 1 fold
Kd (mCherry [8]): 1.69 nM
koff (mCherry [8]): 0.00102 s⁻¹
kon (mCherry [8]): 619000 M⁻¹ s⁻¹
Kd (mCherry [15]): 1.69 nM
koff (mCherry [15]): 0.00102 s⁻¹
kon (mCherry [15]): 619000 M⁻¹ s⁻¹
binding result [16]: binds
Half time ratio (relative to wt) (mCherry [17]): 1 fold
KD ratio (relative to wt) (mCherry [17]): 1 fold

B15: CA10309 FIXa-specific Nb (Stripper2; C-term. 6xHis+EPEA) (VHH)
VHH: QVQLVESGGGLVQAGGSLRLSCATSGIGFSIYSMGWYRQAPGKERELVASIAGNEDKDYVESVKGRFTISRDYAKNTLYLEMSGLKFEDTAMYYCAAGLRRGVSLTPYYWGQGTQVTVSS
Kd [6]: 21 nM
koff [6]: 0.00073 s⁻¹
kon [6]: 62000 M⁻¹ s⁻¹
